Experimental data reported in article PMC3500527 (Cancer cell, 2012).
Values belong to the binder of their own block, whether it stands above or below them.

Experiments:
Cy3-mEVL1-235aa = Cy3-mEVL1-235aa (mouse (from the label mEVL), UniProt P70429 1-235, Cy3 fluorophore (site not stated)); assay: AUC
Cy3-hVASP1-240aa = Cy3-hVASP1-240aa (human, UniProt P50552 1-240, Cy3 fluorophore (site not stated)); assay: AUC
HA-EVL = molecular target: T1, HA-EVL (UniProt Q9UI08 1-416); assay: co-IP
T1 sequence (looked up): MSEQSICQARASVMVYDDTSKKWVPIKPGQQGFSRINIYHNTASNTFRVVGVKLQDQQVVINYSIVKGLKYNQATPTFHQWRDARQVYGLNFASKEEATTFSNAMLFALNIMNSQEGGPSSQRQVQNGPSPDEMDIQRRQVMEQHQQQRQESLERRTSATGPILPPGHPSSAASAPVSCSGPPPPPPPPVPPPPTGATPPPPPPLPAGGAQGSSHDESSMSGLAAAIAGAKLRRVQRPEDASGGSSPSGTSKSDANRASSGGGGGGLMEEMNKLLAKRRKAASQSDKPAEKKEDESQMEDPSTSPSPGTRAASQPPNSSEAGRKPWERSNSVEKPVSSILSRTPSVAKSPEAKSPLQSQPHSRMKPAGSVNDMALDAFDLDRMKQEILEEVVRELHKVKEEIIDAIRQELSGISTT

[1] = molecular target: T2, profilin-2 (immunoprecipitated from cell lysates; mass spectrometry) (UniProt P35080 1-140); assay: co-IP
T2 sequence (looked up): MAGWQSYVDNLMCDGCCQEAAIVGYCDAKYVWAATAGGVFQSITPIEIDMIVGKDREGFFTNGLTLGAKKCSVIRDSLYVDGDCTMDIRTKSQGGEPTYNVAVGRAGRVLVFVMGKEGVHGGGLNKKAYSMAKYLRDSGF

binding result (Cy3-mEVL1-235aa): binds
binding result (Cy3-hVASP1-240aa): binds
B1: mouse profilin-2a (natural protein, UniProt Q9JJV2 1-140, looked up)
chain: MAGWQSYVDNLMCDGCCQEAAIVGYCDAKYVWAATAGGVFQSITPVEIDMIVGKDREGFFTNGLTLGAKKCSVIRDSLYVDGDCTMDIRTKSQGGEPTYNVAVGRAGRVLVFVMGKEGVHGGGLNKKAYSMAKYLRDSGF

fold immunoprecipitated relative to profilin-1 (HA-EVL): 10 fold
B2: profilin-2 (natural protein, human (endogenous in SUM159), UniProt P35080 1-140, looked up)
chain: MAGWQSYVDNLMCDGCCQEAAIVGYCDAKYVWAATAGGVFQSITPIEIDMIVGKDREGFFTNGLTLGAKKCSVIRDSLYVDGDCTMDIRTKSQGGEPTYNVAVGRAGRVLVFVMGKEGVHGGGLNKKAYSMAKYLRDSGF

fold immunoprecipitated relative to profilin-1 [1]: 7 fold
B3: EVL (immunoprecipitated with profilins; mass spectrometry) (natural protein, UniProt Q9UI08 1-416, looked up)
chain: MSEQSICQARASVMVYDDTSKKWVPIKPGQQGFSRINIYHNTASNTFRVVGVKLQDQQVVINYSIVKGLKYNQATPTFHQWRDARQVYGLNFASKEEATTFSNAMLFALNIMNSQEGGPSSQRQVQNGPSPDEMDIQRRQVMEQHQQQRQESLERRTSATGPILPPGHPSSAASAPVSCSGPPPPPPPPVPPPPTGATPPPPPPLPAGGAQGSSHDESSMSGLAAAIAGAKLRRVQRPEDASGGSSPSGTSKSDANRASSGGGGGGLMEEMNKLLAKRRKAASQSDKPAEKKEDESQMEDPSTSPSPGTRAASQPPNSSEAGRKPWERSNSVEKPVSSILSRTPSVAKSPEAKSPLQSQPHSRMKPAGSVNDMALDAFDLDRMKQEILEEVVRELHKVKEEIIDAIRQELSGISTT

fold immunoprecipitated relative to profilin-1 [1]: 1.8 fold
B4: VASP (immunoprecipitated with profilins) (natural protein, UniProt P50552 1-380, looked up)
chain: MSETVICSSRATVMLYDDGNKRWLPAGTGPQAFSRVQIYHNPTANSFRVVGRKMQPDQQVVINCAIVRGVKYNQATPNFHQWRDARQVWGLNFGSKEDAAQFAAGMASALEALEGGGPPPPPALPTWSVPNGPSPEEVEQQKRQQPGPSEHIERRVSNAGGPPAPPAGGPPPPPGPPPPPGPPPPPGLPPSGVPAAAHGAGGGPPPAPPLPAAQGPGGGGAGAPGLAAAIAGAKLRKVSKQEEASGGPTAPKAESGRSGGGGLMEEMNAMLARRRKATQVGEKTPKDESANQEEPEARVPAQSESVRRPWEKNSTTLPRMKSSSSVTTSETQPCTPSSSDYSDLQRVKQELLEEVKKELQKVKEEIIEAFVQELRKRGSP
